Read-outs that look alike come from different tables or passages of the source.
Columns and labels:
[1] = biological target: T1, VP40-WT (Δ43, HIS-tagged), purified RNA-free monomer/dimer (UniProt Q05128 44-326)
[2] = biological target: T1, VP40-WT (Δ43, HIS-tagged), purified …; assay: native MS
[3] = biological target: T1, VP40-WT (Δ43, HIS-tagged), purified …; assay: 30 mM NaCl
[4] = biological target: T1, VP40-WT (Δ43, HIS-tagged), purified …; assay: blue native gel

B1: HSP DNA (ssDNA)
DNA: TACATTCCCAGCCTTTGTAGTGTTTTCGCCAAGCA
binding result [1]: binds

B2: S2R DNA (ssDNA)
DNA: TAAAATAATTTTATTGAAT
binding result [2]: binds

B3: HSP18 DNA (ssDNA)
DNA: CAGCCTTTGTAGTGTTTT
binding result [1]: binds

B4: AGGGG DNA (ssDNA)
DNA: AGGGG
binding result [1]: binds

B5: HSP RNA (ssRNA)
RNA: UACAUUCCCAGCCUUUGUAGUGUUUUCGCCAAGCA
binding result [3]: binds

B6: A36 DNA (ssDNA)
DNA: AAAAAAAAAAAAAAAAAAAAAAAAAAAAAAAAAAAA
binding result [4]: no binding
